Substitutions are numbered along the chain they refer to. In names and notes the source's numbering stands. Like-named read-outs stand apart in the source and are kept apart here. One block for each binder: values may come before it.
What was measured:
[1] = target: T1, PD-1 (antigen of the ELISA and of the in vitro affinity measurement) (UniProt Q15116 25-167, limits assumed); experiment: kinetic binding table: TC3 captured as ligand (capture level 78.1 RU), hPD1-his as sample; method not given
T1 sequence (Q15116 25-167 limits assumed): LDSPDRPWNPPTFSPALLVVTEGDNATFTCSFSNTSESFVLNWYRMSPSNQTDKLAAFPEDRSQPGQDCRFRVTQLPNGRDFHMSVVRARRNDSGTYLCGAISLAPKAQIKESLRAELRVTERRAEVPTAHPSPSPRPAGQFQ

[2] = target: T2, PD-1 shown on cells (Raji-PD-1 cells); CD3/CD28 activated human CD8+ T cells; PD-1 effector cells of the … (human, UniProt Q15116 25-288); experiment: flow cytometry on CD3+CD8+ T cells within CD3/CD28 activated human PBMCs, 1 h at 4 C, anti-human IgG PE, % anti-hIgG+; table CD8+ T cells under the graph
T2 construct: whole, on cells; Human is stated for the PBMCs; also called hPD-1; PD1 expressing Raji cells
T2 sequence (Q15116 25-288): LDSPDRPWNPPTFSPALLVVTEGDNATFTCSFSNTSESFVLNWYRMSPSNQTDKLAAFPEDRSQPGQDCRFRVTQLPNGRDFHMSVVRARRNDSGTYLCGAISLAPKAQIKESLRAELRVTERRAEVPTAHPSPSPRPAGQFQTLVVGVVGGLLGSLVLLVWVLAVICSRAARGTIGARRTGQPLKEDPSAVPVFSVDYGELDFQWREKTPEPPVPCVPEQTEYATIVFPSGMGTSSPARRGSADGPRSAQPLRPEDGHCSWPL
Procedure: Mixed donor lots of human peripheral blood mononuclear cells (PBMCs) were thawed and seeded in medium (RPMI1640, 10% fetal bovine serum (FBS), 2 mM 1-Glutamine, 50 U/mL penicillin, 50 μg/mL streptomycin, 1 μM each of non-essential amino acids, 10 mM HEPES, 1 mM sodium pyruvate, 55 μM B-mercaptoethanol, 10 μg/mL gentamycin) into tissue culture treated plates that were coated for 1 h at 37° C. with 1 μg/ml anti-CD3. Anti-CD28 was added in solution at a concentration of 5 μg/ml. Two days later the PBMCs were collected and transferred into a 96 well v-bottom plate at 100,000 cells per well in FACS Buffer (2% FBS in phosphate buffered saline (PBS)). Test articles were diluted to twice the indicated concentration in FACS buffer. Test articles were added to cells at a 1:1 ratio to the final concentration indicated in the figure and incubated for 1 h at 4° C. The cells were washed three times with FACS buffer and fixed in 4% PFA. Cells were then washed once in FACS buffer. All cells were stained in 100 μL of indicated molecules in FACS buffer for 1 h at 4° C. The cells were washed three times with FACS buffer and fixed in 4% paraformaldehyde (PFA). All cells were subsequently stained in 100 μL with anti-human IgG PE, anti-CD3 PE/Dazzle 594, anti-CD45 PerCP Cy5.5, anti-CD8 BV510, and anti-CD4 BV421 for 30 minutes. Cells were washed twice to remove unbound antibody and analyzed on the BD Celesta by gating on CD3+CD8+ T cells.

[3] = target: T1, PD-1 (antigen of the ELISA and of the …); experiment: kinetic binding table: TC4 captured as ligand (capture level 74.3 RU), hPD1-his as sample; method not given
[4] = target: T1, PD-1 (antigen of the ELISA and of the …); experiment: ELISA
[5] = target: T1, PD-1 (antigen of the ELISA and of the …); experiment: ELISA on PD-1
[6] = target: T1, PD-1 (antigen of the ELISA and of the …); experiment: ELISA on PD-1; remark: listed apart in the source
[7] = target: T1, PD-1 (antigen of the ELISA and of the …); experiment: ELISA on PD-1; remark: listed apart in the source
[8] = target: T1, PD-1 (antigen of the ELISA and of the …); experiment: ELISA on PD-1; remark: listed apart in the source
[9] = target: T2, PD-1 shown on cells (Raji-PD-1 cells; …); experiment: cell-based or functional assay
[10] = target: T2, PD-1 shown on cells (Raji-PD-1 cells; …); experiment: cell-based or functional assay; remark: listed apart in the source
[11] = target: T2, PD-1 shown on cells (Raji-PD-1 cells; …); experiment: cell-based or functional assay; remark: listed apart in the source
[12] = target: T2, PD-1 shown on cells (Raji-PD-1 cells; …); experiment: flow cytometry, on-cell binding to PD-1 expressing Raji cells, anti-human IgG-PE
[13] = target: T2, PD-1 shown on cells (Raji-PD-1 cells; …); experiment: as above; remark: listed apart in the source
[14] = target: T2, PD-1 shown on cells (Raji-PD-1 cells; …); experiment: as above; remark: listed apart in the source

B1: TC3 (Fc fusion)
heavy 1: QVQLVQSGVEVKKPGASVKVSCKASGYTFTNYYMYWVRQAPGQGLEWMGGINPSNGGTNFNEKFKNRVTLTTDSSTTTAYMELKSLQFDDTAVYYCARRDYRFDMGFDYWGQGTTVTVSSASTKGPSVFPLAPSSKSTSGGTAALGCLVKDYFPEPVTVSWNSGALTSGVHTFPAVLQSSGLYSLSSVVTVPSSSLGTQTYICNVNHKPSNTKVDKKVEPKSCDKTHTCPPCPAPELLGGPSVFLFPPKPKDTLMISRTPEVTCVVVDVSHEDPEVKFNWYVDGVEVHNAKTKPREEQYASTYRVVSVLTVLHQDWLNGKEYKCKVSNKALPAPIEKTISKAKGQPREPQVYTLPPCRDELTKNQVSLWCLVKGFYPSDIAVEWESNGQPENNYKTTPPVLDSDGSFFLYSKLTVDKSRWQQGNVFSCSVMHEALHNRFTQKSLSLSPGGGSSPPGGGSSGGGSGPAPTSSSTKKTQLQLEHLLLDLQMILNGINNYKNPKLTAMLTAKFAMPKKATELKHLQCLEEALKPLEEVLNLAQSKNFHLRPRDLISNINVIVLELKGSETTFMCEYADETATIVEFLNRWITFAQSIISTLT
heavy 2: QVQLVQSGVEVKKPGASVKVSCKASGYTFTNYYMYWVRQAPGQGLEWMGGINPSNGGTNFNEKFKNRVTLTTDSSTTTAYMELKSLQFDDTAVYYCARRDYRFDMGFDYWGQGTTVTVSSASTKGPSVFPLAPSSKSTSGGTAALGCLVKDYFPEPVTVSWNSGALTSGVHTFPAVLQSSGLYSLSSVVTVPSSSLGTQTYICNVNHKPSNTKVDKKVEPKSCDKTHTCPPCPAPELLGGPSVFLFPPKPKDTLMISRTPEVTCVVVDVSHEDPEVKFNWYVDGVEVHNAKTKPREEQYASTYRVVSVLTVLHQDWLNGKEYKCKVSNKALPAPIEKTISKAKGQPREPQVCTLPPSRDELTKNQVSLSCAVKGFYPSDIAVEWESNGQPENNYKTTPPVLDSDGSFFLVSKLTVDKSRWQQGNVFSCSVMHEALHNHYTQKSLSLSPGGPPSGSSPMPYDLYHPSGGGAVNGTSQFTCFYNSRANISCVWSQDGALQDTSCQVHAWPDRRRWNQTCELLPVSQASWACNLILGAPDSQKLTTVDIVTLRVLCREGVRWRVMAIQDFKPFENLRLMAPISLQVVHVETHRSNISWEISQASHYFERHLEFEARTLSPGHTWEEAPLLTLKQKQEWISLETLTPDTQYEFQVRVKPLQGEFTTWSPWSQPLAFRTKPAALGKD
light: EIVLTQSPATLSLSPGERATLSCRASKGVSTSGYSYLHWYQQKPGQAPRLLIYLASYLESGVPARFSGSGSGTDFTLTISSLEPEDFAVYYCQHSRDLPLTFGGGTKVEIKRTVAAPSVFIFPPSDEQLKSGTASVVCLLNNFYPREAKVQWKVDNALQSGNSQESVTEQDSKDSTYSLSSTLTLSKADYEKHKVYACEVTHQGLSSPVTKSFNRGEC
notes: Bivalent anti-PD-1 Fab
Kd [1]: 7.11 nM
koff [1]: 0.00328 s⁻¹
kon [1]: 461000 M⁻¹ s⁻¹
EC50 [2]: 0.1 nM

B2: TC24 (Fc fusion)
heavy 1: B1 heavy 1
heavy 2: QVQLVQSGVEVKKPGASVKVSCKASGYTFTNYYMYWVRQAPGQGLEWMGGINPSNGGTNFNEKFKNRVTLTTDSSTTTAYMELKSLQFDDTAVYYCARRDYRFDMGFDYWGQGTTVTVSSASTKGPSVFPLAPSSKSTSGGTAALGCLVKDYFPEPVTVSWNSGALTSGVHTFPAVLQSSGLYSLSSVVTVPSSSLGTQTYICNVNHKPSNTKVDKKVEPKSCDKTHTCPPCPAPELLGGPSVFLFPPKPKDTLMISRTPEVTCVVVDVSHEDPEVKFNWYVDGVEVHNAKTKPREEQYASTYRVVSVLTVLHQDWLNGKEYKCKVSNKALPAPIEKTISKAKGQPREPQVCTLPPSRDELTKNQVSLSCAVKGFYPSDIAVEWESNGQPENNYKTTPPVLDSDGSFFLVSKLTVDKSRWQQGNVFSCSVMHEALHNHYTQKSLSLSPGGGSSGPVPLSLYSGSGGGAVNGTSQFTCFYNSRANISCVWSQDGALQDTSCQVHAWPDRRRWNQTCELLPVSQASWACNLILGAPDSQKLTTVDIVTLRVLCREGVRWRVMAIQDFKPFENLRLMAPISLQVVHVETHRSNISWEISQASHYFERHLEFEARTLSPGHTWEEAPLLTLKQKQEWISLETLTPDTQYEFQVRVKPLQGEFTTWSPWSQPLAFRTKPAALGKD
light: B1 light
notes: Mask CD122 (C122S, C168S)
EC50 [2]: 0.1 nM

B3: TC4 (Fc fusion)
heavy 1: B1 heavy 1
heavy 2: B1 heavy 2 with M458V, Y460L, D461S, H464S, P465G
light: B1 light
Kd [3]: 6.58 nM
koff [3]: 0.00306 s⁻¹
kon [3]: 465000 M⁻¹ s⁻¹

The next lines start with the values.

EC50 [2]: 0.1 nM
B4: TC47 (Fc fusion)
heavy 1: B1 heavy 1
heavy 2: B2 heavy 2 with S589A, N590C, S635C
light: B1 light
notes: Mask CD122 (C122A, N123C)

Kd [4]: 0.33 nM
EC50 (read off the curve) [5]: ~0.2 nM
EC50 (read off the curve) [6]: ~0.2 nM
EC50 (read off the curve) [7]: ~0.2 nM
Kd [8]: 0.18 nM
EC50 (read off the curve) [9]: ~1 nM
EC50, PD-1/PD-L1 blockade RGA (NFAT fold induction) [10]: 1.34 nM
EC50, PD-1/PD-L1 blockade RGA (NFAT fold induction) [11]: 1.47 nM
EC50 (read off the curve) [12]: ~0.7 nM
EC50 (read off the curve) [13]: ~0.7 nM
EC50 [14]: 0.8 nM
EC50 [2]: 0.09 nM
B5: TC46 (Fc fusion)
heavy 1: B1 heavy 1
heavy 2: B1 heavy 2 with S591A, N592C, S637C
light: B1 light
notes: Mask CD122 (C122A, N123C); also called PembroFab-IgG1 (N297A, MST, RF)-CD122*
